Results from the Human Domainome abundance scans (Beltran et al. 2025).
± gives the uncertainty stated by the source.

Assay: abundance fitness (aPCA) (normalised: wild type 0, dead -1); higher = more abundant; growth selection in yeast, the domain comes from the species named
Conditions: Homo sapiens

| Substance | abundance fitness |
| --- | --- |
| Transcriptional activator Myb M189K, P10242 | 0.038 ± 0.14 |
| Transcriptional activator Myb M189L, P10242 | 0.073 ± 0.083 |
| Transcriptional activator Myb M189N, P10242 | -0.155 ± 0.14 |
| Transcriptional activator Myb M189P, P10242 | -0.386 ± 0.17 |
| Transcriptional activator Myb M189R, P10242 | -0.303 ± 0.064 |
| Transcriptional activator Myb M189S, P10242 | -0.303 ± 0.065 |
| Transcriptional activator Myb M189T, P10242 | -0.181 ± 0.085 |
| Transcriptional activator Myb M189V, P10242 | -0.02 ± 0.064 |
| Transcriptional activator Myb M189W, P10242 | -0.36 ± 0.093 |
| Transcriptional activator Myb M189Y, P10242 | -0.535 ± 0.15 |
| Transcriptional activator Myb N179A, P10242 | 0.001 ± 0.053 |
| Transcriptional activator Myb N179C, P10242 | -0.022 ± 0.088 |
| Transcriptional activator Myb N179E, P10242 | 0.016 ± 0.069 |
| Transcriptional activator Myb N179F, P10242 | -0.027 ± 0.12 |
| Transcriptional activator Myb N179G, P10242 | 0.004 ± 0.041 |
| Transcriptional activator Myb N179H, P10242 | -0.04 ± 0.094 |
| Transcriptional activator Myb N179I, P10242 | 0.127 ± 0.14 |
| Transcriptional activator Myb N179L, P10242 | 0.029 ± 0.059 |
| Transcriptional activator Myb N179P, P10242 | -0.489 ± 0.097 |
| Transcriptional activator Myb N179Q, P10242 | -0.025 ± 0.078 |
| Transcriptional activator Myb N179S, P10242 | -0.075 ± 0.061 |
| Transcriptional activator Myb N179T, P10242 | 0.026 ± 0.075 |

| Substance | abundance fitness |
| --- | --- |
| Transcriptional activator Myb N179W, P10242 | -0.169 ± 0.066 |
| Transcriptional activator Myb N179Y, P10242 | -0.075 ± 0.1 |
| Transcriptional activator Myb N183A, P10242 | 0.037 ± 0.094 |
| Transcriptional activator Myb N183C, P10242 | -0.203 ± 0.12 |
| Transcriptional activator Myb N183D, P10242 | 0.142 ± 0.18 |
| Transcriptional activator Myb N183E, P10242 | 0.011 ± 0.098 |
| Transcriptional activator Myb N183F, P10242 | -0.176 ± 0.14 |
| Transcriptional activator Myb N183G, P10242 | -0.067 ± 0.063 |
| Transcriptional activator Myb N183H, P10242 | 0.141 ± 0.17 |
| Transcriptional activator Myb N183I, P10242 | -0.022 ± 0.11 |
| Transcriptional activator Myb N183K, P10242 | -0.192 ± 0.099 |
| Transcriptional activator Myb N183L, P10242 | -0.074 ± 0.084 |
| Transcriptional activator Myb N183M, P10242 | 0.068 ± 0.11 |
| Transcriptional activator Myb N183P, P10242 | -1.09 ± 0.14 |
| Transcriptional activator Myb N183Q, P10242 | -0.094 ± 0.13 |
| Transcriptional activator Myb N183R, P10242 | -0.153 ± 0.051 |
| Transcriptional activator Myb N183S, P10242 | -0.019 ± 0.085 |
| Transcriptional activator Myb N183T, P10242 | 0.101 ± 0.086 |
| Transcriptional activator Myb N183W, P10242 | -0.198 ± 0.084 |
| Transcriptional activator Myb N183Y, P10242 | -0.343 ± 0.1 |
| Transcriptional activator Myb N186A, P10242 | -0.081 ± 0.07 |
| Transcriptional activator Myb N186C, P10242 | -0.028 ± 0.089 |

| Substance | abundance fitness |
| --- | --- |
| Transcriptional activator Myb N186E, P10242 | 0.037 ± 0.079 |
| Transcriptional activator Myb N186F, P10242 | -0.055 ± 0.13 |
| Transcriptional activator Myb N186G, P10242 | -0.162 ± 0.055 |
| Transcriptional activator Myb N186H, P10242 | -0.139 ± 0.19 |
| Transcriptional activator Myb N186I, P10242 | 0.027 ± 0.1 |
| Transcriptional activator Myb N186K, P10242 | 0.065 ± 0.1 |
| Transcriptional activator Myb N186L, P10242 | -0.016 ± 0.071 |
| Transcriptional activator Myb N186M, P10242 | -0.007 ± 0.11 |
| Transcriptional activator Myb N186P, P10242 | -0.804 ± 0.14 |
| Transcriptional activator Myb N186R, P10242 | -0.047 ± 0.059 |
| Transcriptional activator Myb N186S, P10242 | -0.062 ± 0.062 |
| Transcriptional activator Myb N186V, P10242 | -0.017 ± 0.072 |
| Transcriptional activator Myb N186Y, P10242 | -0.154 ± 0.15 |
| Transcriptional activator Myb P174A, P10242 | -0.359 ± 0.066 |
| Transcriptional activator Myb P174C, P10242 | -0.239 ± 0.15 |
| Transcriptional activator Myb P174D, P10242 | -0.224 ± 0.1 |
| Transcriptional activator Myb P174E, P10242 | -0.02 ± 0.098 |
| Transcriptional activator Myb P174F, P10242 | -0.298 ± 0.17 |
| Transcriptional activator Myb P174G, P10242 | -0.462 ± 0.056 |
| Transcriptional activator Myb P174H, P10242 | -0.479 ± 0.12 |
| Transcriptional activator Myb P174I, P10242 | -0.339 ± 0.14 |
| Transcriptional activator Myb P174K, P10242 | -0.086 ± 0.11 |

| Substance | abundance fitness |
| --- | --- |
| Transcriptional activator Myb P174L, P10242 | -0.443 ± 0.082 |
| Transcriptional activator Myb P174M, P10242 | -0.329 ± 0.093 |
| Transcriptional activator Myb P174N, P10242 | -0.255 ± 0.16 |
| Transcriptional activator Myb P174R, P10242 | -0.251 ± 0.052 |
| Transcriptional activator Myb P174S, P10242 | -0.338 ± 0.088 |
| Transcriptional activator Myb P174T, P10242 | -0.184 ± 0.074 |
| Transcriptional activator Myb P174V, P10242 | -0.127 ± 0.073 |
| Transcriptional activator Myb P174Y, P10242 | -0.643 ± 0.12 |
| Transcriptional activator Myb Q157L, P10242 | -0.081 ± 0.22 |
| Transcriptional activator Myb Q195A, P10242 | -0.045 ± 0.079 |
| Transcriptional activator Myb Q195C, P10242 | -0.043 ± 0.12 |
| Transcriptional activator Myb Q195D, P10242 | -0.19 ± 0.13 |
| Transcriptional activator Myb Q195E, P10242 | 0.006 ± 0.15 |
| Transcriptional activator Myb Q195F, P10242 | -0.244 ± 0.15 |
| Transcriptional activator Myb Q195G, P10242 | -0.074 ± 0.074 |
| Transcriptional activator Myb Q195H, P10242 | -0.269 ± 0.16 |
| Transcriptional activator Myb Q195I, P10242 | -0.19 ± 0.15 |
| Transcriptional activator Myb Q195K, P10242 | -0.388 ± 0.41 |
| Transcriptional activator Myb Q195L, P10242 | -0.057 ± 0.091 |
| Transcriptional activator Myb Q195M, P10242 | -0.199 ± 0.16 |
| Transcriptional activator Myb Q195N, P10242 | 0.107 ± 0.29 |
| Transcriptional activator Myb Q195P, P10242 | -0.214 ± 0.15 |

| Substance | abundance fitness |
| --- | --- |
| Transcriptional activator Myb Q195R, P10242 | 0.091 ± 0.07 |
| Transcriptional activator Myb Q195S, P10242 | -0.054 ± 0.1 |
| Transcriptional activator Myb Q195V, P10242 | 0.043 ± 0.081 |
| Transcriptional activator Myb Q195W, P10242 | -0.282 ± 0.14 |
| Transcriptional activator Myb Q195Y, P10242 | -0.26 ± 0.22 |
| Transcriptional activator Myb Q200A, P10242 | 0.011 ± 0.068 |
| Transcriptional activator Myb Q200C, P10242 | -0.18 ± 0.11 |
| Transcriptional activator Myb Q200D, P10242 | -0.139 ± 0.11 |
| Transcriptional activator Myb Q200E, P10242 | -0.008 ± 0.082 |
| Transcriptional activator Myb Q200F, P10242 | -0.302 ± 0.11 |
| Transcriptional activator Myb Q200G, P10242 | 0.014 ± 0.049 |
| Transcriptional activator Myb Q200H, P10242 | 0.003 ± 0.13 |
| Transcriptional activator Myb Q200I, P10242 | -0.161 ± 0.11 |
| Transcriptional activator Myb Q200K, P10242 | 0.002 ± 0.088 |
| Transcriptional activator Myb Q200L, P10242 | -0.078 ± 0.067 |
| Transcriptional activator Myb Q200M, P10242 | -0.205 ± 0.088 |
| Transcriptional activator Myb Q200N, P10242 | 0.004 ± 0.11 |
| Transcriptional activator Myb Q200P, P10242 | 0.005 ± 0.1 |
| Transcriptional activator Myb Q200R, P10242 | 0.007 ± 0.048 |
| Transcriptional activator Myb Q200S, P10242 | -0.073 ± 0.06 |
